Measured values published in article PMC12783888.
* marks the point of attachment. AMC = Cc1cc(=O)oc2cc(N*)ccc12

B1: Ac-VWLY-AMC (peptide)
peptide: Ac-VWLY-{AMC}
SMILES: CC(=O)N[C@H](C(=O)N[C@@H](Cc1c[nH]c2ccccc12)C(=O)N[C@@H](CC(C)C)C(=O)N[C@@H](Cc1ccc(O)cc1)C(=O)Nc1ccc2c(C)cc(=O)oc2c1)C(C)C

Assays:
[1] = target: SplA allelic variant A6 (Staphylococcus aureus) (UniProt Q2FFS9)
[2] = target: SplA allelic variant A3 (Staphylococcus aureus) (UniProt Q2FFS9)
[3] = target: SplA allelic variant A5 (Staphylococcus aureus) (UniProt Q2FFS9)
[4] = target: T1, SplA wildtype (S. aureus strain USA300 variant) (Staphylococcus aureus strain USA300) (UniProt Q2FFS9)
T1 sequence: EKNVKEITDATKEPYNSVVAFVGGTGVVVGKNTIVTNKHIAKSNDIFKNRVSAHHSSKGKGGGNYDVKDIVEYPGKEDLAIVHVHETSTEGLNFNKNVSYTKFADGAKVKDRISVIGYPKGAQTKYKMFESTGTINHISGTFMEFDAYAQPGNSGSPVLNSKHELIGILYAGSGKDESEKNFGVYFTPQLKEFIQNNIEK

[5] = target: SplA allelic variant A4 (Staphylococcus aureus) (UniProt Q2FFS9)
[6] = target: SplA allelic variant A1 (Staphylococcus aureus) (UniProt Q2FFS9)

Molecule | KM of Michaelis-Menten kinetics, cleavage of the fluorogenic substrate (AMC release) [1] | KM of Michaelis-Menten kinetics, cleavage of the fluorogenic substrate (AMC release) [2] | KM of Michaelis-Menten kinetics, cleavage of the fluorogenic substrate (AMC release) [3] | KM of Michaelis-Menten kinetics, cleavage of the fluorogenic substrate (AMC release) [4] | KM of Michaelis-Menten kinetics, cleavage of the fluorogenic substrate (AMC release) [5] | KM of Michaelis-Menten kinetics, cleavage of the fluorogenic substrate (AMC release) [6]
Ac-Tyr-Leu-Tyr-{AMC} | 109 µM | 39 µM | 35 µM | 49 µM | 65 µM | 54 µM
B1 | 19 µM | 11 µM | 13 µM | 11 µM | 23 µM | 26 µM
